Numbering of substitutions follows the chain as printed. In names and notes the source's numbering stands.
B1: recombinant 5.396.1 (antibody, human IgG2, kappa, V domains shown)
VH: QVQLQQWGAGLLKPSETLSLTCAVYGGSFSGYYWSWIRQPPGKGLEWIGEIHHSGSTNYNPSLKSRVTISVDTSKNQFSLKLSSVTAADTAVYYCARDNWNDSFYYYYGMDVWGQGTTVTVSS
VL: DIQMTQSPSSLSASVGDRVTITCRASQGISNHLAWFQQKPGKAPKSLIYAASSLQSGVPSKFSGSGSGTDFTLTISSLQPEDFATYYCQQYNRHPFTFGPGTKVDIKR
notes: human IgG2 kappa, expressed in 293 Freestyle cells; also called 5.396.1 (recombinant)
B2: 5.396.1 Hc-S103N Lc-K61R (antibody, human IgG2, kappa, V domains shown)
VH: B1 VH with S103N
VL: B1 VL with K61R
notes: human IgG2 kappa; the entries already hold the substitutions S103N (Hc) and K61R (Lc); also called 5.396.1 (S103N/K61R); 5.396.1 N/R
B3: 5.948.1 Hc-H100Y (antibody, human IgG2, kappa, V domains shown)
VH: QVQLVQSGAEVKKPGASVKVSCKASGYTFTSYDINWVRQATGQGLEWMGWMDPNSGNTGYAQKFQGRVTMTRNTSISTAYMELSSLRSEDTAVYYCARGYYDSDGYYSFSGMDVWGQGTTVTVSS
VL: not shown
notes: human IgG2 kappa; the heavy chain entry already holds H100Y; also called 5.948.1 H100Y; 5.948.1 (H100Y)
B4: recombinant 6.605.1 (antibody, human IgG2, kappa, V domains shown)
VH: QVHLVQSGAEVKMPGASVKVSCKASGYTFTSYGISWVRQAPGQGLEWMGWISAYNGNTNYAQKLQGRITMTTDTSTSTAYMDLRSLRSDDTAVYYCARDGDYYDPFDYWGQGTLVTVSS
VL: DIQMTQSPSSLSASVGDRVTITCRTSQSISNWLNWYQQKPGKAPKLLIYGASTLKSGVPSRFSGSESGTDFTLTISSLQPEDFATYYCQQSYSTPPTFGQGTKVEIKR
notes: human IgG2 kappa; also called 6.605.1 (recombinant)
B5: 6.605.1 Hc-H3Q,M13K,D82E Lc-T25A,T53S (antibody, human IgG2, kappa, V domains shown)
VH: B4 VH with H3Q, M13K, D82E
VL: B4 VL with T25A, T53S
notes: human IgG2 kappa; the entries already hold the substitutions; also called 6.605.1 (H3Q,M13K,D82E-T25A,T53S); 6.605.1 QKE/AS

Tests used:
[1] = target: T1, cynomolgus monkey IgE (cynomolgus monkey); experiment: capture ELISA, antibody coated; Test 1, Cyno 1 serum
T1 construct: serum was used as the source of IgE; also called cynomolgus IgE; cyno IgE
Protocol: (§1) Wells were washed once with 150 μL/well wash buffer (0.05% Tween-20, Sigma, Cat. No. P7949/TBS) then blocked with 150 μL/well 1% BSA (Sigma, Cat. No. A7030) in TBS for 2 hours at room temperature. Wells were washed twice with 150 μL wash buffer. 50 μL human (in-house donors) or cynomolgus serum (Harlan Sera-Lab Ltd, Loughborough) was added from neat to at least 1:16 dilution in 1% BSA/0.05% Tween-20/TBS diluent buffer. […] Wells were incubated for 2 hours at 25° C. before washing (3×150 μLwash buffer). […] Wells were incubated for 1 hour at 25° C. then washed (3×150 μL wash buffer). Streptavidin-HRP (Amersham Bioscience, Cat. No. RPN 1231) diluted 1:1000 in diluent buffer was added to all wells and incubated for 45 minutes at room temperature. Wells were washed (3×150 μL wash buffer). […] OPD (Dako, Cat. No. S2045) was added to all wells and the color allowed to develop for 10 minutes before stopping the reaction with 50 μl 0.6M H₂SO₄ and the absorbance measured at 490 nm.

[2] = target: T1, cynomolgus monkey IgE; experiment: capture ELISA, antibody coated; Test 1, Cyno 6 serum
Protocol: as §1

[3] = target: T1, cynomolgus monkey IgE; experiment: capture ELISA, antibody coated; Test 1, Cyno 7 serum
Protocol: as §1

[4] = target: T2, human IgA (human); experiment: ELISA, immunoglobulin coated at 4 µg/mL, anti-human IgG2 detection
T2 construct: bought preparation coated on the ELISA plate
Protocol: (§2) Wells were washed 3× with 150 μL wash buffer (0.05% Tween-20 (Sigma, Cat. No. P7949)/PBS) then blocked with 150 μL/well blocking buffer (2.5% BSA (Sigma, Cat. No. A7030)/PBS) for 2 hours at room temperature. Wells were washed 3× with 150 μL wash buffer/well. […] Antibodies were diluted in diluent buffer (PBS/1% BSA/0.05% Tween-20) and this was added to blank control wells (duplicate wells for each secondary antibody used). Antibodies were incubated for 2 hours at room temperature. Wells were washed 3× with 150 μL wash buffer/well. Binding of control antibodies to immunoglobulin was detected with anti-mouse IgG-HRP conjugate (Sigma, Cat. No. A4416) diluted 1:8000 in diluent buffer. 50 μL/well was added to control antibody and blank wells. Wells were incubated for 1 hour at room temperature, then washed 3× with 150 μL wash buffer/well. 50 μl OPD (Dako, Cat. No. […] Wells were incubated for 1 hour at room temperature then washed 3× with 150 μL wash buffer/well. Streptavidin-HRP (Amersham Bioscience, Cat. No. RPN 1231) diluted 1:2000 in diluent buffer was added to all wells and incubated for 45 minutes at room temperature. Wells were washed (3×150 μL wash buffer).

[5] = target: T3, human IgG1 (human, UniProt P01857-1 1-330 = IgG part); experiment: as above
T3 construct: bought preparation coated on the ELISA plate; not shown: bought immunoglobulin, light chain not described
T3 sequence (P01857 other isoform, or with tags, fused parts or gaps): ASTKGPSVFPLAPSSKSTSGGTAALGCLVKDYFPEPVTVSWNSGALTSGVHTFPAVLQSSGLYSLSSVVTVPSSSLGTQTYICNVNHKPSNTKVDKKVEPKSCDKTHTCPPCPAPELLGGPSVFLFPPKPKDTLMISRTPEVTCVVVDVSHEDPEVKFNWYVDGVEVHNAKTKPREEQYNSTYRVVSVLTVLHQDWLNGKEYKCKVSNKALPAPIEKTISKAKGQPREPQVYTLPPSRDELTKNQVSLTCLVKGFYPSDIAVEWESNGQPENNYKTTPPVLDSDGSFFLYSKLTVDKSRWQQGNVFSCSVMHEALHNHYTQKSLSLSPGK
Protocol: as §2

[6] = target: T4, human IgG3 (human, UniProt P01860-1 1-377); experiment: as above
T4 construct: bought preparation coated on the ELISA plate; not shown: bought immunoglobulin, light chain not described
T4 sequence (P01860 other isoform, or with tags, fused parts or gaps): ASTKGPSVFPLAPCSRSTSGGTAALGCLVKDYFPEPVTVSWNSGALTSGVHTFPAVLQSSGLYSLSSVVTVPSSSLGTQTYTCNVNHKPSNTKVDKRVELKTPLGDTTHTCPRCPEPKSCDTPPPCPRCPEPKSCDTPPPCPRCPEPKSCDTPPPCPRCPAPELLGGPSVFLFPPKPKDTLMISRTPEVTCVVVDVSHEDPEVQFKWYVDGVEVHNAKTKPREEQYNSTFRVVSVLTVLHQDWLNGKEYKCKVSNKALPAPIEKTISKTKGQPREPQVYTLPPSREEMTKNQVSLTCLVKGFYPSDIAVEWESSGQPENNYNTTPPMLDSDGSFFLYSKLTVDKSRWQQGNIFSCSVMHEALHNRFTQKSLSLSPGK
Protocol: as §2

[7] = target: T1, cynomolgus monkey IgE; experiment: capture ELISA, antibody coated; Test 1, Cyno 4 serum
Protocol: as §1

[8] = target: T1, cynomolgus monkey IgE; experiment: capture ELISA, antibody coated; Test 1, Cyno 2 serum
Protocol: as §1

[9] = target: T1, cynomolgus monkey IgE; experiment: capture ELISA, antibody coated; Test 1, Cyno 5 serum
Protocol: as §1

[10] = target: T1, cynomolgus monkey IgE; experiment: capture ELISA, antibody coated; Test 2, Cyno 3 serum
Protocol: as §1

[11] = target: T1, cynomolgus monkey IgE; experiment: capture ELISA, antibody coated; Test 2, Cyno 5 serum
Protocol: as §1

[12] = target: T1, cynomolgus monkey IgE; experiment: capture ELISA, antibody coated; Test 2, Cyno 7 serum
Protocol: as §1

[13] = target: T1, cynomolgus monkey IgE; experiment: capture ELISA, antibody coated; Test 2, Cyno 2 serum
Protocol: as §1

[14] = target: T1, cynomolgus monkey IgE; experiment: capture ELISA, antibody coated; Test 2, Cyno 8 serum
Protocol: as §1

[15] = target: T1, cynomolgus monkey IgE; experiment: capture ELISA, antibody coated; Test 2, Cyno 4 serum
Protocol: as §1

[16] = target: T1, cynomolgus monkey IgE; experiment: capture ELISA, antibody coated; Test 2, Cyno 1 serum
Protocol: as §1

[17] = target: T1, cynomolgus monkey IgE; experiment: capture ELISA, antibody coated; Test 2, Cyno 6 serum
Protocol: as §1

[18] = target: T1, cynomolgus monkey IgE; experiment: capture ELISA, antibody coated; Test 1, Cyno 3 serum
Protocol: as §1

[19] = target: T5, human IgE (full length human immunoglobulin E) (human, UniProt P01854 1-546); experiment: serum free IgE depletion ELISA; DIN 0321 experiment 2, initial free IgE 265 ng/mL
T5 sequence (P01854 whole entry): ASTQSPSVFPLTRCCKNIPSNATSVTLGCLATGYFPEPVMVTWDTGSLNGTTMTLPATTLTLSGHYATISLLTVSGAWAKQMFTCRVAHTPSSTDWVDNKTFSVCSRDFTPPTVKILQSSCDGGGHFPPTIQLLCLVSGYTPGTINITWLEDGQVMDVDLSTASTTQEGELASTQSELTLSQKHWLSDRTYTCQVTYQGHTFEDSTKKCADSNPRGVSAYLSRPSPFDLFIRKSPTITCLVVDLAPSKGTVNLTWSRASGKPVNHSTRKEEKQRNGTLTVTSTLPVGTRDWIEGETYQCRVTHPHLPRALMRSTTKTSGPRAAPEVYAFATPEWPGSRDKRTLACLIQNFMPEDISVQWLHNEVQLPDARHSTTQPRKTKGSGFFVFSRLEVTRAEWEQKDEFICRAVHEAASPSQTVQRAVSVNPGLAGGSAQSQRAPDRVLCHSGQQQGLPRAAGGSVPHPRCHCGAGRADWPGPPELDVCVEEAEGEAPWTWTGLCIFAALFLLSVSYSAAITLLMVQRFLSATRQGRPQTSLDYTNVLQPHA

[20] = target: T5, human IgE (full length human …); experiment: serum free IgE depletion ELISA; DIN 0011 experiment 2, initial free IgE 326 ng/mL
[21] = target: T5, human IgE (full length human …); experiment: serum free IgE depletion ELISA; DIN 0649, initial free IgE 93 ng/mL
[22] = target: T5, human IgE (full length human …); experiment: serum free IgE depletion ELISA; DIN 0347, initial free IgE 221 ng/mL
[23] = target: T5, human IgE (full length human …); experiment: serum free IgE depletion ELISA; DIN 0461, initial free IgE 80 ng/mL
[24] = target: T5, human IgE (full length human …); experiment: serum free IgE depletion ELISA; DIN 0591, initial free IgE 152 ng/mL
[25] = target: T5, human IgE (full length human …); experiment: serum free IgE depletion ELISA; DIN 0632 experiment 2, initial free IgE 289 ng/mL
[26] = target: T5, human IgE (full length human …); experiment: serum free IgE depletion ELISA; DIN 0623 experiment 2, initial free IgE 133 ng/mL
[27] = target: T5, human IgE (full length human …); experiment: ELISA, immunoglobulin coated at 4 µg/mL, anti-human IgG2 detection
Protocol: as §2

[28] = target: T5, human IgE (full length human …); experiment: serum free IgE depletion ELISA; DIN 0155, initial free IgE 93 ng/mL
[29] = target: T5, human IgE (full length human …); experiment: serum free IgE depletion ELISA; DIN 0451 experiment 2, initial free IgE 534 ng/mL

| Binder | IgE concentration detected [1] [ng/mL] | IgE concentration detected [2] [ng/mL] | IgE concentration detected [3] [ng/mL] | A290 nm [4] [absorbance] | A290 nm [5] [absorbance] | A290 nm [6] [absorbance] | IgE concentration detected [7] [ng/mL] | IgE concentration detected [8] [ng/mL] | IgE concentration detected [9] [ng/mL] | IgE concentration detected [10] [ng/mL] | IgE concentration detected [11] [ng/mL] | IgE concentration detected [12] [ng/mL] | IgE concentration detected [13] [ng/mL] | IgE concentration detected [14] [ng/mL] | IgE concentration detected [15] [ng/mL] | IgE concentration detected [16] [ng/mL] | IgE concentration detected [17] [ng/mL] | IgE concentration detected [18] [ng/mL] | further results |
| --- | --- | --- | --- | --- | --- | --- | --- | --- | --- | --- | --- | --- | --- | --- | --- | --- | --- | --- | --- |
| B1 | 30 | 3 | 0 | 0.04 | 0.07 | 0.05 | 0 | 0 | 37 |  |  |  |  |  |  |  |  |  |  |
| B2 | 41 | 0 | 0 | 0.04 | 0.08 | 0.05 | 0 | 0 | 57 | 53 | 102 | 0 | 39 | 0 | 0 | 57 | 0 | 39 |  |
| B3 |  |  |  | 0.05 | 0.06 | 0.06 |  |  |  | 178 | 420 | 0 | 199 | 36 | 25 | 170 | 39 |  | IC25ng/mL [19]: 2.55 µg/mL; IC25ng/mL [20]: 2.96 µg/mL; IC25ng/mL [21]: 0.39 µg/mL; IC25ng/mL [22]: 1.33 µg/mL; IC25ng/mL [23]: 0.34 µg/mL; IC25ng/mL [24]: 0.55 µg/mL; IC25ng/mL [25]: 2.29 µg/mL; IC25ng/mL [26]: 0.76 µg/mL; A290 nm [27]: 1.05 absorbance; IC25ng/mL [28]: 0.34 µg/mL; IC25ng/mL [29]: 10.5 µg/mL |
| B4 | 120 | 0 | 0 | 0.04 | 0.07 | 0.05 | 0 | 91 | 140 |  |  |  |  |  |  |  |  | 107 |  |
| B5 | 133 |  | 0 | 0.04 | 0.07 | 0.04 | 0 | 103 | 173 |  |  |  |  |  |  |  |  | 122 |  |

— patent US20110064726A1 (published 2011)
